Molecular target: cynomolgus αV (HEK-293 cells transfected with cynomolgus αV alone) (cynomolgus)
Experiment: FACS, HEK-293 transfected with cynomolgus αV

Sequence of cynomolgus αV (HEK-293 cells transfected with cynomolgus αV alone) (cynomolgus) (chain, as listed by the source): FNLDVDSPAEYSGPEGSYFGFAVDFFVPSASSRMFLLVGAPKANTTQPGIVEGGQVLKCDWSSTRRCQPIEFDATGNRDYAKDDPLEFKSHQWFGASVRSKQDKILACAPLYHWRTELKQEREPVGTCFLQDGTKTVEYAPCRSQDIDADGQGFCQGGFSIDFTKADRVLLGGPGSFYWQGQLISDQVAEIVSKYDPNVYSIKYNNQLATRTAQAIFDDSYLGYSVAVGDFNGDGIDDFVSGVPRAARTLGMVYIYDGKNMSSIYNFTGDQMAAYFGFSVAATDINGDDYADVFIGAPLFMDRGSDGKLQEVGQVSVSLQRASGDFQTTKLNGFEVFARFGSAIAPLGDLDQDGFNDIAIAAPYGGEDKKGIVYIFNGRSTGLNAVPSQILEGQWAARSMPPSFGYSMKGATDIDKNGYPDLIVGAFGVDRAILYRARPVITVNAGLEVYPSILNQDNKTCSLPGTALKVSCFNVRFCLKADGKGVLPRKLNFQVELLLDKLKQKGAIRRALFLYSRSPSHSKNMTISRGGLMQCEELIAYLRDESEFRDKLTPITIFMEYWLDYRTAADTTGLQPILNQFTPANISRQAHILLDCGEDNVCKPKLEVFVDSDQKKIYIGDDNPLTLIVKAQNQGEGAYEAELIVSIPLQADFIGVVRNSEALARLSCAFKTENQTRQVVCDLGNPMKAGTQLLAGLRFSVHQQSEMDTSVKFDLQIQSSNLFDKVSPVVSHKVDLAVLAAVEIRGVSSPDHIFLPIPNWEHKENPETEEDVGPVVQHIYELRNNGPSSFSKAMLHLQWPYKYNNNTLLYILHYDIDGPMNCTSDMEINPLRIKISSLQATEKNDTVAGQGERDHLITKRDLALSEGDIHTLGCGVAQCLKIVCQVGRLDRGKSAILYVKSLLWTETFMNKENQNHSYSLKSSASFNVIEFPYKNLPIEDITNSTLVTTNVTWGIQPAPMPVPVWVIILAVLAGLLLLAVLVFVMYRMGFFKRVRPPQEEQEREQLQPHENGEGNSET

B1: sc 133 (antibody, V domains shown)
VH: QVQLVQSGAEVKKPGASVKVSCKASGYTFTGYYMHWVRQAPGQGLEWMGWINPKSGDTNYAQKFQGRVTLTRDTSTSTAYMELSRLRSDDTAVYYCARRLDVWGQGTTVTVSS
VL: QSVLTQPPSVSAAPGQKVTISCSGSSSNIGNNYVSWYQQLPGTAPKLLIYDNNKRPSGIPDRFSGSKSGTSATLGITGLQTGDEADYYCGTWNSSLSAGYVFGTGTKVTV
  percent of cells shifted: 5%
